1 substance from patent US20240280570A1 can be followed below.

Read-outs that look alike come from different tables or passages of the source.

For assay [1], the target named is SARS-CoV-2 RBD (Sino Biological 40592-V08H); Spike Receptor Binding Domain residues R319 - F541 His tagged (SARS-CoV-2) (UniProt P0DTC2).
The target is the same in assay [2]. This is another data set of the same source.
Assay [3] shares this target. As to the kind of experiment: OECT sensor, PEDOT:PSS channel, nanobody on gate, target in buffer.

“VHH72-8 aa-spyCatcher-3C cleavage site-His8”: the figures for the LOD in assay [1], in assay [2] and in assay [3] were 0.048 pM, 0.023 pM and 0.024 pM, respectively.
